Patent publication US20220168396A1, “MULTI-RECEPTOR AGONIST AND MEDICAL USE THEREOF” (published 2022)
Square brackets hold non-standard residues; d marks the D form. Ends that are not written are not given here. Aib = CC(C)(N)C(=O)O

T1: human glucose-dependent insulinotropic peptide receptor (human, UniProt P48546)
T1 sequence: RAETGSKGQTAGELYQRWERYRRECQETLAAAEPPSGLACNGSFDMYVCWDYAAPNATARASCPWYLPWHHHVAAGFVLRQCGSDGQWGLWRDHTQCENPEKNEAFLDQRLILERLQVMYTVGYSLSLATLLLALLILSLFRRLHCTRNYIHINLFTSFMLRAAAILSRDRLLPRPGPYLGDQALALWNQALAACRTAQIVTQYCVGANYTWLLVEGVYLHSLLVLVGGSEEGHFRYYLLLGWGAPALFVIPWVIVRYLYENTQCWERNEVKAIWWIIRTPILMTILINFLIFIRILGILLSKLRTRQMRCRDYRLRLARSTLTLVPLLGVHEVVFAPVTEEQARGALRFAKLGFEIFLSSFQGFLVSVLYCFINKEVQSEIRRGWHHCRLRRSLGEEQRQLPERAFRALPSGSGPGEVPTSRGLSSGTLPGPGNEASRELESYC

B1: Compound No. 24 (peptide)
peptide: Y[Aib]EGTFTSDYSIYLEKIAAQEFVNWLLAQKPSSGAPPPSK-NH2
modifications: N-terminus assumed
SMILES: CC[C@H](C)[C@H](NC(=O)[C@H](CCCCN)NC(=O)[C@H](CCC(=O)O)NC(=O)[C@H](CC(C)C)NC(=O)[C@H](Cc1ccc(O)cc1)NC(=O)[C@@H](NC(=O)[C@H](CO)NC(=O)[C@H](Cc1ccc(O)cc1)NC(=O)[C@H](CC(=O)O)NC(=O)[C@H](CO)NC(=O)[C@@H](NC(=O)[C@H](Cc1ccccc1)NC(=O)[C@@H](NC(=O)CNC(=O)[C@H](CCC(=O)O)NC(=O)C(C)(C)NC(=O)[C@@H](N)Cc1ccc(O)cc1)[C@@H](C)O)[C@@H](C)O)[C@@H](C)CC)C(=O)N[C@@H](C)C(=O)N[C@@H](C)C(=O)N[C@@H](CCC(N)=O)C(=O)N[C@@H](CCC(=O)O)C(=O)N[C@@H](Cc1ccccc1)C(=O)N[C@H](C(=O)N[C@@H](CC(N)=O)C(=O)N[C@@H](Cc1c[nH]c2ccccc12)C(=O)N[C@@H](CC(C)C)C(=O)N[C@@H](CC(C)C)C(=O)N[C@@H](C)C(=O)N[C@@H](CCC(N)=O)C(=O)N[C@@H](CCCCN)C(=O)N1CCC[C@H]1C(=O)N[C@@H](CO)C(=O)N[C@@H](CO)C(=O)NCC(=O)N[C@@H](C)C(=O)N1CCC[C@H]1C(=O)N1CCC[C@H]1C(=O)N1CCC[C@H]1C(=O)N[C@@H](CO)C(=O)N[C@@H](CCCCN)C(N)=O)C(C)C
B2: Compound No. 19 (peptide)
peptide: Y[Aib]EGTFTSDYSIYLDKEAAKEFVNWLLAGGPSSGAPPPSK-NH2
modifications: N-terminus assumed
SMILES: CC[C@H](C)[C@H](NC(=O)[C@H](CO)NC(=O)[C@H](Cc1ccc(O)cc1)NC(=O)[C@H](CC(=O)O)NC(=O)[C@H](CO)NC(=O)[C@@H](NC(=O)[C@H](Cc1ccccc1)NC(=O)[C@@H](NC(=O)CNC(=O)[C@H](CCC(=O)O)NC(=O)C(C)(C)NC(=O)[C@@H](N)Cc1ccc(O)cc1)[C@@H](C)O)[C@@H](C)O)C(=O)N[C@@H](Cc1ccc(O)cc1)C(=O)N[C@@H](CC(C)C)C(=O)N[C@@H](CC(=O)O)C(=O)N[C@@H](CCCCN)C(=O)N[C@@H](CCC(=O)O)C(=O)N[C@@H](C)C(=O)N[C@@H](C)C(=O)N[C@@H](CCCCN)C(=O)N[C@@H](CCC(=O)O)C(=O)N[C@@H](Cc1ccccc1)C(=O)N[C@H](C(=O)N[C@@H](CC(N)=O)C(=O)N[C@@H](Cc1c[nH]c2ccccc12)C(=O)N[C@@H](CC(C)C)C(=O)N[C@@H](CC(C)C)C(=O)N[C@@H](C)C(=O)NCC(=O)NCC(=O)N1CCC[C@H]1C(=O)N[C@@H](CO)C(=O)N[C@@H](CO)C(=O)NCC(=O)N[C@@H](C)C(=O)N1CCC[C@H]1C(=O)N1CCC[C@H]1C(=O)N1CCC[C@H]1C(=O)N[C@@H](CO)C(=O)N[C@@H](CCCCN)C(N)=O)C(C)C
B3: Compound No. 22 (peptide)
peptide: Y[Aib]EGTFTSDYSIYLD[Aib]IAAQEFVQWLLAGGPSSGAPPPSK-NH2
modifications: N-terminus assumed
SMILES: CC[C@H](C)[C@H](NC(=O)[C@H](CO)NC(=O)[C@H](Cc1ccc(O)cc1)NC(=O)[C@H](CC(=O)O)NC(=O)[C@H](CO)NC(=O)[C@@H](NC(=O)[C@H](Cc1ccccc1)NC(=O)[C@@H](NC(=O)CNC(=O)[C@H](CCC(=O)O)NC(=O)C(C)(C)NC(=O)[C@@H](N)Cc1ccc(O)cc1)[C@@H](C)O)[C@@H](C)O)C(=O)N[C@@H](Cc1ccc(O)cc1)C(=O)N[C@@H](CC(C)C)C(=O)N[C@@H](CC(=O)O)C(=O)NC(C)(C)C(=O)N[C@H](C(=O)N[C@@H](C)C(=O)N[C@@H](C)C(=O)N[C@@H](CCC(N)=O)C(=O)N[C@@H](CCC(=O)O)C(=O)N[C@@H](Cc1ccccc1)C(=O)N[C@H](C(=O)N[C@@H](CCC(N)=O)C(=O)N[C@@H](Cc1c[nH]c2ccccc12)C(=O)N[C@@H](CC(C)C)C(=O)N[C@@H](CC(C)C)C(=O)N[C@@H](C)C(=O)NCC(=O)NCC(=O)N1CCC[C@H]1C(=O)N[C@@H](CO)C(=O)N[C@@H](CO)C(=O)NCC(=O)N[C@@H](C)C(=O)N1CCC[C@H]1C(=O)N1CCC[C@H]1C(=O)N1CCC[C@H]1C(=O)N[C@@H](CO)C(=O)N[C@@H](CCCCN)C(N)=O)C(C)C)[C@@H](C)CC
B4: Compound No. 1 (peptide)
peptide: H[Aib]EGTFTSDVSSYLEEEAAKEFIAWLVRGGPSSGAPPPSK-NH2
modifications: N-terminus assumed
SMILES: CC[C@H](C)[C@H](NC(=O)[C@H](Cc1ccccc1)NC(=O)[C@H](CCC(=O)O)NC(=O)[C@H](CCCCN)NC(=O)[C@H](C)NC(=O)[C@H](C)NC(=O)[C@H](CCC(=O)O)NC(=O)[C@H](CCC(=O)O)NC(=O)[C@H](CCC(=O)O)NC(=O)[C@H](CC(C)C)NC(=O)[C@H](Cc1ccc(O)cc1)NC(=O)[C@H](CO)NC(=O)[C@H](CO)NC(=O)[C@@H](NC(=O)[C@H](CC(=O)O)NC(=O)[C@H](CO)NC(=O)[C@@H](NC(=O)[C@H](Cc1ccccc1)NC(=O)[C@@H](NC(=O)CNC(=O)[C@H](CCC(=O)O)NC(=O)C(C)(C)NC(=O)[C@@H](N)Cc1c[nH]cn1)[C@@H](C)O)[C@@H](C)O)C(C)C)C(=O)N[C@@H](C)C(=O)N[C@@H](Cc1c[nH]c2ccccc12)C(=O)N[C@@H](CC(C)C)C(=O)N[C@H](C(=O)N[C@@H](CCCNC(=N)N)C(=O)NCC(=O)NCC(=O)N1CCC[C@H]1C(=O)N[C@@H](CO)C(=O)N[C@@H](CO)C(=O)NCC(=O)N[C@@H](C)C(=O)N1CCC[C@H]1C(=O)N1CCC[C@H]1C(=O)N1CCC[C@H]1C(=O)N[C@@H](CO)C(=O)N[C@@H](CCCCN)C(N)=O)C(C)C
B5: Compound No. 23 (peptide)
peptide: Y[Aib]EGTFTSDYSIYLEKEAAKEFVNWLLAQKPSSGAPPPSK-NH2
modifications: N-terminus assumed
SMILES: CC[C@H](C)[C@H](NC(=O)[C@H](CO)NC(=O)[C@H](Cc1ccc(O)cc1)NC(=O)[C@H](CC(=O)O)NC(=O)[C@H](CO)NC(=O)[C@@H](NC(=O)[C@H](Cc1ccccc1)NC(=O)[C@@H](NC(=O)CNC(=O)[C@H](CCC(=O)O)NC(=O)C(C)(C)NC(=O)[C@@H](N)Cc1ccc(O)cc1)[C@@H](C)O)[C@@H](C)O)C(=O)N[C@@H](Cc1ccc(O)cc1)C(=O)N[C@@H](CC(C)C)C(=O)N[C@@H](CCC(=O)O)C(=O)N[C@@H](CCCCN)C(=O)N[C@@H](CCC(=O)O)C(=O)N[C@@H](C)C(=O)N[C@@H](C)C(=O)N[C@@H](CCCCN)C(=O)N[C@@H](CCC(=O)O)C(=O)N[C@@H](Cc1ccccc1)C(=O)N[C@H](C(=O)N[C@@H](CC(N)=O)C(=O)N[C@@H](Cc1c[nH]c2ccccc12)C(=O)N[C@@H](CC(C)C)C(=O)N[C@@H](CC(C)C)C(=O)N[C@@H](C)C(=O)N[C@@H](CCC(N)=O)C(=O)N[C@@H](CCCCN)C(=O)N1CCC[C@H]1C(=O)N[C@@H](CO)C(=O)N[C@@H](CO)C(=O)NCC(=O)N[C@@H](C)C(=O)N1CCC[C@H]1C(=O)N1CCC[C@H]1C(=O)N1CCC[C@H]1C(=O)N[C@@H](CO)C(=O)N[C@@H](CCCCN)C(N)=O)C(C)C
B6: Compound No. 20 (peptide)
peptide: Y[Aib]EGTFTSDYSIYLDKIAAQEFVNWLLAGGPSSGAPPPSK-NH2
modifications: N-terminus assumed
SMILES: CC[C@H](C)[C@H](NC(=O)[C@H](CCCCN)NC(=O)[C@H](CC(=O)O)NC(=O)[C@H](CC(C)C)NC(=O)[C@H](Cc1ccc(O)cc1)NC(=O)[C@@H](NC(=O)[C@H](CO)NC(=O)[C@H](Cc1ccc(O)cc1)NC(=O)[C@H](CC(=O)O)NC(=O)[C@H](CO)NC(=O)[C@@H](NC(=O)[C@H](Cc1ccccc1)NC(=O)[C@@H](NC(=O)CNC(=O)[C@H](CCC(=O)O)NC(=O)C(C)(C)NC(=O)[C@@H](N)Cc1ccc(O)cc1)[C@@H](C)O)[C@@H](C)O)[C@@H](C)CC)C(=O)N[C@@H](C)C(=O)N[C@@H](C)C(=O)N[C@@H](CCC(N)=O)C(=O)N[C@@H](CCC(=O)O)C(=O)N[C@@H](Cc1ccccc1)C(=O)N[C@H](C(=O)N[C@@H](CC(N)=O)C(=O)N[C@@H](Cc1c[nH]c2ccccc12)C(=O)N[C@@H](CC(C)C)C(=O)N[C@@H](CC(C)C)C(=O)N[C@@H](C)C(=O)NCC(=O)NCC(=O)N1CCC[C@H]1C(=O)N[C@@H](CO)C(=O)N[C@@H](CO)C(=O)NCC(=O)N[C@@H](C)C(=O)N1CCC[C@H]1C(=O)N1CCC[C@H]1C(=O)N1CCC[C@H]1C(=O)N[C@@H](CO)C(=O)N[C@@H](CCCCN)C(N)=O)C(C)C

Assays:
[1] = molecular target: human glucagon-like peptide-1 receptor (human, UniProt P43220); assay: cell-based or functional assay
[2] = molecular target: T1, human glucose-dependent insulinotropic …; assay: cell-based or functional assay

Row | Binder | Activity for human GLP-1R (EC50 nM), cAMP HTRF [1] | Activity for human GIPR (EC50 nM), cAMP HTRF [2]
1 | B1 | 0.083 nM | 0.008 nM
2 | B2 | 0.024 nM | 0.02 nM
3 | B3 | 0.051 nM | 0.018 nM
4 | B4 | 0.005 nM | > 10 nM
5 | B5 | 0.059 nM | 0.02 nM
6 | B6 | 0.027 nM | 0.008 nM
